Results from IntAct's records for PubMed 40475291.

B1: Patched domain-containing protein 1 (Mus musculus), Q14B62 (parent)
chain: MLRQVLHRGLRTCFSRLGHFIASHPVFFASAPVLISILLGASFSRYQVEESVEHLLAPQHSLAKIERNLVNSLFPVNRSKHRLYSDLQTPGRYGRVIVTSYQKANMLDQHHTDLILKLHTAVTKIQVPRPGFNYTFAHICVLNNDKTCIVDDIVHVLEELKNARATNRTNFAITYPITHLKDGRAVYNGHQLGGVTVHSKDRVKSAEAIQLTYYLQSINSLNDMVAERWESSFCDTVKLFQKSNSKVKIYPYTSSSLREDFQKTSRVSERYLVTSLILVVTMAILCCSMQDCVRSKPWLGLLGLVTISLATLTAAGIINLTGGKYNSTFLGVPFVMLGHGLYGTFEMLSSWRKTREDQHVKERTAEVYADSMLSFSLTTAMYLVTFGIGASPFTNIEAARIFCCNSCIAILFNYLYVLSFYGSSLVFTGYIENNYQHSIFCRKVPKPDVLQEKPAWYRFLLTARFSEETAEGEEANTYESHLLVCFLKRYYCDWITNTYVKPFVVLFYLIYISFALMGYLQVSEGSDLSNIVATATQTIEYTTAHQKYFNNYSPVIGFYIYESIEYWNSSVQEDVLEYTKGFVRISWFESYLNYLRKLNVSTDLPKKNFTDMLRNSFLKTPQFSHFQEDIIFSKKYNDEVDVVASRMFLVAKTMETNREELYDLLETLRRLSVTSKVKFIVFNPSFVYMDRYASSLGAPLHNSCISALFLLFFSAFLVADSLINVWITLTVVSVEFGVIGFMTLWKVELDCISVLCLIYGINYTIDNCAPLLSTFVLGKDFTRTKWVKNALEVHGVAILQSYLCYIVGLFPLAAVPSNLTCTLFRCLFLIAFVTFFHCFAILPVILTFLPPSKKKRKEKKNPENREEIECVEMVDIDSTRVVDQITTV
partner: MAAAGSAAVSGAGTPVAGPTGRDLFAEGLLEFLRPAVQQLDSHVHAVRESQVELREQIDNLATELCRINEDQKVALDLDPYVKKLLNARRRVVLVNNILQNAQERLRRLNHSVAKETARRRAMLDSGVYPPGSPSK

Variants of: B1
Details: with snapn_mouse Snapin

Variant	effect of a mutation on the interaction
V150M	with no effect
T602A	increasing interaction strength
L73F	with no effect
V195I	decreasing interaction strength
K181T	decreasing interaction strength
P75Q	decreasing interaction strength
Q102R	with no effect
S51N	with no effect
F549C	increasing interaction strength
Y213C	decreasing interaction strength
P75L	decreasing interaction strength
D527E	increasing interaction strength
